The test system of the data set is Escherichia coli TOP10. The data set is described as follows: shrunken log2 fold change of peptide-encoding DNA abundance (4.5 h post-induction vs induction); higher = less antimicrobial activity (less host growth inhibition). The note with it: time post-induction: 4.5 h; library: site-saturation at positions 5, 18, 19, 20.
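Also: peptides expressed intracellularly from a pBAD plasmid library in pooled LB shake-flask culture, induced with 0.3% L-arabinose, DNA abundance read by NGS, three biological replicates, DESeq2 with apeglm shrinkage.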

For the sequence RRIRMRPPRLPRPRPRPGIKPRP, the “shrunken log2 fold change” value amounted to 0.274. Next, RRIRGRPPRLPRPRPRPFVGPRP: -0.26; RRIRGRPPRLPRPRPRPEWYPRP: 0.243; RRIRIRPPRLPRPRPRPVMSPRP: -0.0169.

Regarding RRIRNRPPRLPRPRPRPRAYPRP, the “shrunken log2 fold change” value was 0.0694.

With RRIRKRPPRLPRPRPRPVLQPRP, the “shrunken log2 fold change” value was -0.0875. Next, RRIRNRPPRLPRPRPRPCHSPRP: -0.539; RRIRQRPPRLPRPRPRPMTSPRP: -0.000946; RRIRHRPPRLPRPRPRPKCRPRP: -0.163. As to RRIRTRPPRLPRPRPRPHCNPRP, the “shrunken log2 fold change” value is -0.453. Next, RRIRDRPPRLPRPRPRPPFHPRP: 0.0293; RRIRRRPPRLPRPRPRPPWVPRP: 0.535. With RRIRGRPPRLPRPRPRPSLIPRP, the “shrunken log2 fold change” value turned out to be 0.211. Next, RRIRMRPPRLPRPRPRPSGCPRP: 0.44.

With RRIRIRPPRLPRPRPRPRERPRP, the “shrunken log2 fold change” value stood at 0.688. Regarding RRIRRRPPRLPRPRPRPRTTPRP, the “shrunken log2 fold change” value amounted to 0.406. RRIRHRPPRLPRPRPRPLTDPRP: the “shrunken log2 fold change” value was -0.251. Next, RRIRSRPPRLPRPRPRPSNQPRP: -0.242; RRIRFRPPRLPRPRPRPLFMPRP: -0.36; RRIRCRPPRLPRPRPRPFFNPRP: -0.687. Next, RRIRRRPPRLPRPRPRPRHTPRP: 0.268. As to RRIRDRPPRLPRPRPRPGYPPRP, the “shrunken log2 fold change” value turned out to be 0.0463. Next, RRIRVRPPRLPRPRPRPQRWPRP: 0.496. Next, RRIRPRPPRLPRPRPRPKWNPRP: -0.0477; RRIRTRPPRLPRPRPRPEYIPRP: 0.00825; RRIRSRPPRLPRPRPRPIWIPRP: -0.0851. Next, RRIRGRPPRLPRPRPRPHWVPRP: 0.107; RRIRERPPRLPRPRPRPSSFPRP: -0.426; RRIRRRPPRLPRPRPRPFYYPRP: -0.204. For the sequence RRIRNRPPRLPRPRPRPTNFPRP, the “shrunken log2 fold change” value was determined as 0.0354. Next, RRIRIRPPRLPRPRPRPHCTPRP: -0.0502; RRIRGRPPRLPRPRPRPSWQPRP: 0.109. Next, RRIRDRPPRLPRPRPRPINMPRP: 0.00272. For RRIRSRPPRLPRPRPRPHYTPRP, the “shrunken log2 fold change” value was -0.728.

In the case of RRIRHRPPRLPRPRPRPPQYPRP, the “shrunken log2 fold change” value is -0.154. Next, RRIRFRPPRLPRPRPRPWHVPRP: -0.0433. Next, RRIRVRPPRLPRPRPRPRGQPRP: 0.131. Next, RRIRIRPPRLPRPRPRPNRNPRP: -1.1. Turning to RRIRWRPPRLPRPRPRPKMDPRP, the “shrunken log2 fold change” value was 0.135.

For the sequence RRIRMRPPRLPRPRPRPSQTPRP, the “shrunken log2 fold change” value is 0.38. Take RRIRRRPPRLPRPRPRPRAYPRP: the “shrunken log2 fold change” value is -0.0105.

Regarding RRIRFRPPRLPRPRPRPCWKPRP, the “shrunken log2 fold change” value is -0.0141. On to RRIRFRPPRLPRPRPRPGEMPRP, for which the “shrunken log2 fold change” value was 0.123.

RRIRARPPRLPRPRPRPMWMPRP: the “shrunken log2 fold change” value turned out to be 0.0208. Next, RRIRERPPRLPRPRPRPWERPRP: 0.0496. In the case of RRIRFRPPRLPRPRPRPDPHPRP, the “shrunken log2 fold change” value was determined as 0.137.

As to RRIRTRPPRLPRPRPRPDHAPRP, the “shrunken log2 fold change” value was found to be 0.283.

Turning to RRIRTRPPRLPRPRPRPEPGPRP, the “shrunken log2 fold change” value stood at 0.0826. For RRIRDRPPRLPRPRPRPRNVPRP, the “shrunken log2 fold change” value was found to be 0.0903. Next, RRIRCRPPRLPRPRPRPNHYPRP: -0.825. Next, RRIRGRPPRLPRPRPRPTPNPRP: 0.957; RRIRFRPPRLPRPRPRPLRLPRP: 0.891; RRIRPRPPRLPRPRPRPMSIPRP: -0.211.

As for RRIRGRPPRLPRPRPRPEYNPRP, the “shrunken log2 fold change” value was found to be 0.643. As to RRIRCRPPRLPRPRPRPFIAPRP, the “shrunken log2 fold change” value is -0.613. For the sequence RRIRWRPPRLPRPRPRPRRFPRP, the “shrunken log2 fold change” value was found to be 0.269. Next, RRIRARPPRLPRPRPRPAISPRP: 0.594. Next, RRIRVRPPRLPRPRPRPKFDPRP: 0.21; RRIRARPPRLPRPRPRPDLDPRP: 0.515. Next, RRIRSRPPRLPRPRPRPAHIPRP: -0.0188; RRIRPRPPRLPRPRPRPMESPRP: 0.0152; RRIRIRPPRLPRPRPRPIIAPRP: -0.389. Turning to RRIRLRPPRLPRPRPRPESIPRP, the “shrunken log2 fold change” value is 0.0419.

As for RRIRRRPPRLPRPRPRPTVKPRP, the “shrunken log2 fold change” value was 0.106. Next, RRIRSRPPRLPRPRPRPTTCPRP: 0.0283; RRIRGRPPRLPRPRPRPAFIPRP: -0.177. Next, RRIRQRPPRLPRPRPRPCHWPRP: 0.018. Take RRIRSRPPRLPRPRPRPFFMPRP: the “shrunken log2 fold change” value is -0.288.

RRIRFRPPRLPRPRPRPDKCPRP: the “shrunken log2 fold change” value was -0.18. Next, RRIRARPPRLPRPRPRPPQWPRP: 0.814; RRIRGRPPRLPRPRPRPTILPRP: 0.131; RRIRPRPPRLPRPRPRPQFRPRP: -0.0113. RRIRDRPPRLPRPRPRPEGSPRP: the “shrunken log2 fold change” value amounted to 1.06. Next, RRIRMRPPRLPRPRPRPCNWPRP: -0.00208. Next, RRIRDRPPRLPRPRPRPGCFPRP: 0.565. Next, RRIRWRPPRLPRPRPRPAHAPRP: 0.191. Turning to RRIRQRPPRLPRPRPRPAQDPRP, the “shrunken log2 fold change” value was found to be 0.226.

Regarding RRIRKRPPRLPRPRPRPAHQPRP, the “shrunken log2 fold change” value worked out at 0.162. Next, RRIRDRPPRLPRPRPRPKGDPRP: 0.0039; RRIRDRPPRLPRPRPRPYRDPRP: -0.444. As for RRIRTRPPRLPRPRPRPQVSPRP, the “shrunken log2 fold change” value was -0.0699. For RRIRYRPPRLPRPRPRPDEHPRP, the “shrunken log2 fold change” value is -0.0204. As for RRIRSRPPRLPRPRPRPRENPRP, the “shrunken log2 fold change” value was 0.468.

Regarding RRIRQRPPRLPRPRPRPWPPPRP, the “shrunken log2 fold change” value is 0.16.

On to RRIRIRPPRLPRPRPRPCCVPRP, for which the “shrunken log2 fold change” value is -0.726.

As to RRIRFRPPRLPRPRPRPYRGPRP, the “shrunken log2 fold change” value is -0.384. RRIRLRPPRLPRPRPRPGDWPRP: the “shrunken log2 fold change” value turned out to be 0.618.

On to RRIRRRPPRLPRPRPRPYEEPRP, for which the “shrunken log2 fold change” value is -0.3. Next, RRIRCRPPRLPRPRPRPYIAPRP: -0.762.

RRIRKRPPRLPRPRPRPWAYPRP: the “shrunken log2 fold change” value is -0.228.

Consider RRIRCRPPRLPRPRPRPFSHPRP, for which the “shrunken log2 fold change” value is -0.608. Next, RRIRMRPPRLPRPRPRPMTHPRP: 0.173; RRIRARPPRLPRPRPRPDWWPRP: 0.608. Next, RRIRHRPPRLPRPRPRPLSCPRP: -0.287.

With RRIRMRPPRLPRPRPRPFNFPRP, the “shrunken log2 fold change” value was -0.598.

Consider RRIRIRPPRLPRPRPRPAFDPRP, for which the “shrunken log2 fold change” value is -0.295. Next, RRIRWRPPRLPRPRPRPYYAPRP: -0.195; RRIRWRPPRLPRPRPRPKSEPRP: 0.502. RRIRHRPPRLPRPRPRPRGPPRP: the “shrunken log2 fold change” value is 0.171. Next, RRIRKRPPRLPRPRPRPGVNPRP: 0.213; RRIRCRPPRLPRPRPRPDTTPRP: 0.00602. Turning to RRIRFRPPRLPRPRPRPRDWPRP, the “shrunken log2 fold change” value came out at 0.308. Next, RRIRCRPPRLPRPRPRPDFYPRP: -0.629; RRIRPRPPRLPRPRPRPEQVPRP: 0.0348; RRIRHRPPRLPRPRPRPHHWPRP: -0.156.

As to RRIRDRPPRLPRPRPRPSPPPRP, the “shrunken log2 fold change” value was -0.15. Next, RRIRTRPPRLPRPRPRPMYWPRP: -0.131; RRIRFRPPRLPRPRPRPTNYPRP: -0.587; RRIRWRPPRLPRPRPRPNCCPRP: -0.16.

Regarding RRIRARPPRLPRPRPRPPYHPRP, the “shrunken log2 fold change” value is -0.102. Next, RRIRIRPPRLPRPRPRPPKGPRP: 0.0681; RRIRWRPPRLPRPRPRPKRWPRP: 0.441; RRIRERPPRLPRPRPRPNHLPRP: 0.0486.

Turning to RRIRCRPPRLPRPRPRPRHEPRP, the “shrunken log2 fold change” value is -0.117. Next, RRIRTRPPRLPRPRPRPTMWPRP: -0.0407. Next, RRIRKRPPRLPRPRPRPRVKPRP: -0.0843; RRIRKRPPRLPRPRPRPTYFPRP: -0.817; RRIRCRPPRLPRPRPRPFKPPRP: -0.302. Next, RRIRTRPPRLPRPRPRPWQDPRP: -0.326. With RRIRFRPPRLPRPRPRPLVDPRP, the “shrunken log2 fold change” value turned out to be 0.0316. Turning to RRIRKRPPRLPRPRPRPNQEPRP, the “shrunken log2 fold change” value was -0.0316. In the case of RRIRSRPPRLPRPRPRPIGTPRP, the “shrunken log2 fold change” value was -0.25. With RRIRPRPPRLPRPRPRPYHLPRP, the “shrunken log2 fold change” value is -1.07. Next, RRIRYRPPRLPRPRPRPGPQPRP: -0.151; RRIRTRPPRLPRPRPRPGVAPRP: 0.639.

Values taken from the supplement of paper PMC9112550, “Optimization of the antimicrobial peptide Bac7 by deep mutational scanning” (BMC Biology, 2022).
